# Legend:
# [1] = molecular target: T1, CstF-64 RRM-Hinge;CstF-77 MT-CTD (Homo sapiens;Homo sapiens, UniProt P33240;Q12996 1-195;607-717, |); experiment: NMR (1H-15N HSQC titration); smaller CSPs; last 30 aa of CstF-77 show no significant CSP; 10 mM phosphate pH 6.0, 2 mM TCEP, 30 C; 15N-labeled protein titrated with unlabeled RNA; conditions: protein: recombinant;recombinant, tags: His6-TEV, removed by TEV;MBP-TEV, copies: 1;1, label: none, single strand
# T1 sequence 1: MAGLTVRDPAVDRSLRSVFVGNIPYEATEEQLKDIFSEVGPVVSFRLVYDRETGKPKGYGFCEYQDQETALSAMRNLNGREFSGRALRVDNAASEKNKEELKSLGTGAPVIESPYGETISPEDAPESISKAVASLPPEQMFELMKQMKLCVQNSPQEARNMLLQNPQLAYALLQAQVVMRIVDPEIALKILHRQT
# T1 sequence 2: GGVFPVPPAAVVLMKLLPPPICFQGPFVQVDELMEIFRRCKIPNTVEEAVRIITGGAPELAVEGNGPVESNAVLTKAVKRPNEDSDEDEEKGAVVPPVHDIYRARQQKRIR
# [2] = molecular target: T2, CstF-64 RRM (Homo sapiens, UniProt P33240 1-107); experiment: NMR (1H-15N HSQC titration); 10 mM phosphate pH 6.0, 2 mM TCEP, 30 C; 15N-labeled protein titrated with unlabeled RNA; conditions: protein: recombinant; tags: His6-TEV, removed by TEV; label: none; single strand
# T2 sequence: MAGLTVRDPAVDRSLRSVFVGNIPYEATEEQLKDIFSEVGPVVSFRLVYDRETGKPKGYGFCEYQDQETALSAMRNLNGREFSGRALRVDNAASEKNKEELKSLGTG
# [3] = molecular target: T3, CstF-64 RRM-Hinge;CstF-77 MT (MT-CTD lacking last 30 aa) (Homo sapiens;Homo sapiens, UniProt P33240;Q12996 1-195;607-687, |del688-717); experiment: as above; conditions: protein: recombinant;recombinant, tags: His6-TEV, removed by TEV;MBP-TEV, copies: 1;1, label: none, single strand
# T3 sequence 1: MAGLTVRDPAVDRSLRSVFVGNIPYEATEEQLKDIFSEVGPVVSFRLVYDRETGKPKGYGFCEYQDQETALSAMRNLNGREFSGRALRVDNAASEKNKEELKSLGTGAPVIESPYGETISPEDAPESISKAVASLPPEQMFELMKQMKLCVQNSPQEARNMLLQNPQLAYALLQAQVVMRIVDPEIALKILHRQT
# T3 sequence 2: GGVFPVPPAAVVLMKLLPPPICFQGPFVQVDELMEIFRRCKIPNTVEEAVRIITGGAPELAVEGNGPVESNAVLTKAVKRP
binder,measurement,setting,value
AUUUUAUGUUUCAGGU (ssRNA) [SVL RNA],Kd,[1],3.3 ± 2.3 µM
same,Kd,[2],0.7 ± 0.4 µM
same,Kd,[3],3.5 ± 1 µM

# From PMC6294498, “The structural basis of CstF-77 modulation of cleavage and polyadenylation through stimulation of CstF-64 activity”
